This note sets out measurements from US9091695B2, “Methods and systems for quantification of peptides and other analytes” (Laboratory Corporation of America Holdings, priority 2007, dated 2015).

The nature of data set [1]: Stock solution / internal standard solution storage stability. The class given is physicochemical.
The nature of data set [2]: Autosampler stability of calibrators and quality control samples. The class given is physicochemical. The settings on record: stored in the autosampler at 10° C. The procedure: The autosampler stability was evaluated using calibrators and quality control samples (LLOQ, mid-range and ULOQ using both pooled plasma and blank plasma calibrators). Duplicate curves were included with the batch. The first calibration curve was injected, then after 24 hours, the remaining quality control and calibration curve samples were injected. Both calibration curves were used to ascertain accuracy of pooled patient and blank plasma controls. The acceptability criteria is defined such that the standard curve back-fit data should be 80-120% at LLOQ, 85-115% at other concentrations of expected curve values. Mean accuracy of each quality control sample should be ≦±20% at the LLOQ and ≦±15% at all other levels.

Turning to “pGlu-His-Trp-Ser-Tyr-Gly-Leu-Arg-Pro-Gly-NH2 [GnRH]”, the “Time stock solution is stable” value in data set [1] (frozen at −70° C.) is reported as “up to 376 days”. The “Time stable in the autosampler” value in data set [2] came out at 24 h.

On to “[(U-23C9, 15N)-Tyr5], [(U-23C6, 15N)-Leu7], [(U-19C5, 15N)-Pro9]-Gonadorelin [GnRH internal standard]”, for which the “Time internal standard solution is stable” value in data set [1] (refrigerated at 4° C.) is reported as “up to 51 days”.
